# Experimental data reported in the supplement of paper PMC10126150.
# ± gives the standard deviation of the averaged measurements.
# System: ATP
# Experiment: switch fluorescence ratio, 500 uM ATP over buffer (Cy3 cluster intensity, sum of 5 cycles each) (fold (ratio)); higher = stronger signal-on switching upon ATP binding; sequences stand for … in TCGTCGGCAGCGTCAGATGTGTATAAGAGACAGTTTTTTTTTTTTTTTTTTTTTTTTT…TC
# Conditions: aptamer strand: ATP DNA aptamer (quencher-CACCTGGGGGAGTATTGCGGAGGAAGG + anchor), 100 nM annealed; ATP concentration: 500 uM
# How it was run: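 Cy3-labelled switching-strand clusters on a modified Illumina MiSeq flow-cell were annealed to 100 nM quencher-labelled ATP aptamer and imaged first in selection buffer, then after 15 min with 500 uM ATP at 22 °C. NaOH stripping and re-annealing separated each of five buffer/ATP cycles, and clusters outside 100-1000 RFU were excluded. The fluorescence ratio sums target-cycle Cy3 intensity over buffer-cycle Cy3 intensity per cluster and averages it per switch-domain sequence.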
# 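Further: ATP exposure 15 min at 22 °C before imaging.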
row,Sequence,switch fluorescence ratio
1,AACCGTTTTG,0.979 ± 0.011
2,AAATATTTAC,1.12 ± 0.11
3,ACAATCGGAA,1.025 ± 0.0014
4,TTGTTAGGAA,1.01 ± 0.02
5,CTTCTTCAGC,1.44 ± 0.061
6,GACGGGGGAA,1.82 ± 1.3
7,CGTTGCTTTG,0.9869 ± 0.0016
8,CGTTTTTATT,1.01 ± 0.015
9,TTACGGTATG,1.09 ± 0.035
10,GAAGTTCGAG,0.998 ± 0.016
11,AAGAGGAAGG,0.9709 ± 0.0027
12,CGTTAGGCGC,0.985 ± 0.013
13,AATCGGGGCG,0.905 ± 0.016
14,CTTAGGGGT,1.03 ± 0.015
15,AGAGTATTTA,0.991 ± 0.011
16,GGGAGTGTCA,0.981 ± 0.0045
17,TTAATAAAGG,1.02 ± 0.018
18,TAGGTTTGTG,0.993 ± 0.03
19,AACCATTTGG,0.9825 ± 0.0046
20,TTTTCCCGCA,2.02 ± 0.26
21,ATAGTGGGGA,1.04 ± 0.026
22,TTGCTGTTTC,1 ± 0.067
23,GTTATATTGA,0.999 ± 0.026

row,Sequence,switch fluorescence ratio
1,TCAGAAGGCG,0.981 ± 0.015
2,CGTCATTTAT,1 ± 0.06
3,CGAGCCTTAA,1.09 ± 0.035
4,TTGGAAAATG,1.02 ± 0.037
5,GGATGATCTT,0.972 ± 0.022
6,CGTTTGGGCA,1.01 ± 0.017
7,CAATGGCCTC,1 ± 0.047
8,CGTGGAGCGA,1.04 ± 0.02
9,AATACAATGG,1.04 ± 0.011
10,GGGAGTTAGA,0.9885 ± 0.0063
11,TCAGTGGGTT,0.9968 ± 0.0089
12,TGGTCGTAGT,0.994 ± 0.048
13,CGGAGTGAGG,1.02 ± 0.014
14,CGTTTTTGGA,0.966 ± 0.018
15,GGTTAAGTGG,1.01 ± 0.015
16,GTCAGGGGGT,1.04 ± 0.068
17,ATTAGGTCTA,1 ± 0.014
18,AGGAGTACGT,0.988 ± 0.013
19,GGGGACTGAT,0.995 ± 0.022
20,TTAATCTAGC,0.991 ± 0.021
21,TACCTACATC,1.26 ± 0.031
22,TAGTTGGAAG,1.021 ± 0.0048
23,CACTCGTGGC,1.01 ± 0.053

row,Sequence,switch fluorescence ratio
1,GCTTACTCAT,1.09 ± 0.043
2,GCCTTAGCGG,1.03 ± 0.048
3,TTAGAGGACG,1.02 ± 0.025
4,GGCGCGCGGG,0.991 ± 0.00073
5,TTAGGGGGTC,0.998 ± 0.036
6,ACTCTATAAT,1.146 ± 0.0092
7,TGTTGGGTTT,0.998 ± 0.031
8,GGTCGTCAGT,0.986 ± 0.037
9,CGGGGTTGGC,1.02 ± 0.061
10,TTACACGAGA,1.054 ± 0.0057
11,GTTATATCGC,0.985 ± 0.03
12,TTTTAACTGG,0.988 ± 0.034
13,GGGGGTATCC,1.03 ± 0.054
14,TTACTTTCCT,1.12 ± 0.086
15,TTCTGTTTCT,0.995 ± 0.011
16,TTTATCGTCT,1.12 ± 0.068
17,GGTTGAGGTT,1.04 ± 0.022
18,CGTGGTTCAG,0.996 ± 0.014
19,TGGGATTGGG,0.974 ± 0.013
20,TGTGAGCCTG,0.98 ± 0.092
21,AATGAAGGTC,0.965 ± 0.079
22,GATAGAGCAT,1.01 ± 0.013
23,CCTACAGTGA,1.752 ± 0.015

row,Sequence,switch fluorescence ratio
1,AGCGGTTATT,1.004 ± 0.0044
2,CTGCTGGGGC,1.05 ± 0.026
3,CTCTGCAGTG,3.7 ± 0.5
4,CGGGGTTTT,0.999 ± 0.046
5,GACCTATATT,1.05 ± 0.022
6,GCGTAAAGGG,0.99 ± 0.043
7,TAGTTGGGGA,1.03 ± 0.033
8,GTATGATTCG,0.9843 ± 0.0051
9,AGGGGGCTTT,0.985 ± 0.021
10,TGGGGGCAGG,1.01 ± 0.047
11,TTTGACGCGT,1.02 ± 0.016
12,GCGGTGCTGG,0.991 ± 0.024
13,TATACAGAGG,0.983 ± 0.032
14,GCGGCCAGGG,1.23 ± 0.15
15,TTTGACGATT,1 ± 0.049
16,TAATCGATGG,1.009 ± 0.0012
17,GGATTGAGTT,0.999 ± 0.035
18,TGTTGGTGGG,0.989 ± 0.024
19,GAGGCAGGGT,1.033 ± 0.0064
20,TTGGCGGTGG,1.08 ± 0.26
21,CCGCGAGCTA,4.52 ± 1.1
22,TCTGTTAATT,1.01 ± 0.014
23,GAGTGGTCAG,0.9638 ± 0.0077

row,Sequence,switch fluorescence ratio
1,TCGAGAGTAG,0.948 ± 0.016
2,TTAAGGTGTG,1.02 ± 0.041
3,TCCGTTTTGA,1.001 ± 0.0095
4,TTAGGAAGAT,1.36 ± 0.59
5,GACTTACGTT,1.22 ± 0.17
6,AGAACGCGTA,1.03 ± 0.013
7,CAACGAGTGG,1.012 ± 0.0028
8,TATTGGGATA,1.01 ± 0.027
9,ACTTTTACAT,1.13 ± 0.025
10,GTAATATTTC,0.992 ± 0.027
11,ATTGATGTCC,0.976 ± 0.0098
12,AGCATTTTTG,1.024 ± 0.0035
13,TTGGAGGGGC,1 ± 0.071
14,AAGCAGTAGC,1.05 ± 0.0043
15,TTCTTTTTGG,0.97 ± 0.042
16,AAGAATATTT,1.01 ± 0.012
17,TGCTTTTGAT,1 ± 0.048
18,GACCTATTTT,1.023 ± 0.0039
19,CTGACATGAG,1 ± 0.032
20,TGGGGATGTT,1.01 ± 0.049
21,CTGGGATGTG,0.98 ± 0.023
22,TAGGTCTTGC,1.01 ± 0.033
23,AGGACCATGT,1.01 ± 0.02

row,Sequence,switch fluorescence ratio
1,TGGTTAGCG,1.04 ± 0.024
2,TCCTGGAGCG,1.08 ± 0.068
3,GCAAGAGTGA,1.04 ± 0.038
4,TATGAATGGG,1.01 ± 0.021
5,TTTTACTGCT,1.15 ± 0.18
6,GGGGGGTTTA,1.01 ± 0.029
7,AAGGATAGGC,1 ± 0.013
8,TTGACTTGTC,0.9991 ± 0.0069
9,TCGAGTTTGC,0.931 ± 0.027
10,AGGACGTCCA,0.989 ± 0.02
11,AGTTATGTTT,0.956 ± 0.051
12,CCTGGACTCG,1.02 ± 0.03
13,ACATACTGCA,1.29 ± 0.14
14,ACCGGGCGGC,1.05 ± 0.033
15,TGCCCCCGGT,1.08 ± 0.066
16,AAAAATTTCG,1.05 ± 0.063
17,ATAAAGCGGC,0.994 ± 0.047
18,TTTTTTTAGC,1.03 ± 0.064
19,CGTTTGTATC,1.02 ± 0.022
20,ATTACAAATT,1.03 ± 0.05
21,GTTGCTGTTT,1 ± 0.048
22,AAGGCGAGGT,0.994 ± 0.022
23,CTGGCGGGGA,1.02 ± 0.025

row,Sequence,switch fluorescence ratio
1,TGGGCTACTC,1.1 ± 0.044
2,AAACATAGTG,0.987 ± 0.052
3,CGGCGAAGGG,0.961 ± 0.014
4,TCCAAGGGTG,1.46 ± 0.15
5,AAGTTTATTC,0.967 ± 0.017
6,CGGTCCTTGG,0.99 ± 0.014
7,GGAACGTAGG,1.016 ± 0.0083
8,AAAAATGTGT,0.971 ± 0.01
9,AAGGAGTTGC,0.9733 ± 0.0062
10,AAAGGAAAAC,1 ± 0.022
11,TTAGGGCCGA,1 ± 0.031
12,TGATAGTAGT,1 ± 0.025
13,GAGCGGTTTG,0.998 ± 0.017
14,GTTTAAAACG,0.9961 ± 0.0073
15,TACGGAAGGA,1.1 ± 0.021
16,GTAGGAAGTG,0.9935 ± 0.0091
17,GGGGGAGAAC,1.026 ± 0.0019
18,GGTGGGCAAT,1.11 ± 0.045
19,GCTCTATACG,1.049 ± 0.003
